Results taken from US20230000974A1.

System: T1, fluorogenic substrate (R&D systems, cat no. ES007), peptide YVADAPK between Mca and Dnp groups
T1 sequence: YVADAPK

Substance: commercial ACE-2 from Sino Biological (cat no 10108H08H20)
- enzymatic activity assay using a fluorogenic substrate (fluorescence, excitation 320 nm, emission 405 nm): All four samples appeared to have similar levels of activity
